Results from patent publication US20090075898A1, “Complement C3A Derived Peptides and Uses Thereof” (Yeda Research and Development Co. Ltd. at the Weizmann …, priority 2005, published 2009).

Legend:
[1] = tested on: bone marrow derived mast cells (BMMC); assay: Secretory response (β-hexosaminidase release) of bone marrow derived mast cells; format: cell-based, mouse
Method: Cells. Bone marrow derived mast cells (BMMC) were prepared from Balb/c mice as described by Nagao et al. (Science 212: 333-335, 1981). After 3 weeks, an approximately 95% pure mast cell population was obtained, showing high expression of FcεRI and stem cell factor receptor (c-kit), as measured by flow cytometry.
(§1) Secretory response of mast cells.
Similar experiments were carried out using bone-marrow derived mast cells (BMMC). […] The control peptide of the sequence DVSNYITR had no effect on either system.

[2] = tested on: rat peritoneal mast cells (RPMC); assay: Secretory response (β-hexosaminidase release) of rat peritoneal mast cells; format: cell-based
Excerpt: Rat peritoneal mast cells (RPMC) were isolated as previously described (Kim et al. J. Immunol. 162:4960-4965, […]). Mast cell preparations were ca. 95% pure, as evaluated by flow cytometric monitoring of FcεRI surface expression. Compound 48/80, a specific activator of serosal type mast cells elicited about 50% release of the total β-hexosaminidase content of the isolated rat peritoneal mast cells.
as §1
While mucosal type mast cells are non-responsive to peptidergic stimuli, the serosal type ones have been known for a long time to be stimulated by cationic secretagogues. The anaphylatoxic peptides C3a and C5a initiate the cells' secretory response by binding to their respective receptors expressed by serosal type mast cells. To investigate the effect of the peptides on this mast cell-type, RPMC were used. As expected, these cells did respond to both C5a and C3a (Table 2). However, degranulation was inhibited when peptides C3a7 or C3a9 were added to the IgE-sensitized RPMC and stimulated, 5 min later with a suboptimal antigen dose (Table 2).

FcεRI β-chain = biological target: T1, FcεRI β-chain (Mus musculus, UniProt P20490); assay: Covalent cross linking of C3a to BMMC, immunoprecipitation and Western blot; format: binding; conditions: C3a 50 μg/ml, BS3 cross linker
T1 construct: endogenous in cells; host or cells: BMMC (bone marrow derived mast cells)
T1 sequence (P20490 1-235): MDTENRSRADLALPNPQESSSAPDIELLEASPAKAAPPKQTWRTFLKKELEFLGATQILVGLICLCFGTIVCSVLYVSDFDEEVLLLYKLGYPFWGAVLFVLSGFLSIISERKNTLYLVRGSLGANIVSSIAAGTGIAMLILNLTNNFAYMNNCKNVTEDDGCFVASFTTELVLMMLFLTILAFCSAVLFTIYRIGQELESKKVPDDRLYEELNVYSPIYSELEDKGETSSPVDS
T1 sequence (P20489 24-250 partner): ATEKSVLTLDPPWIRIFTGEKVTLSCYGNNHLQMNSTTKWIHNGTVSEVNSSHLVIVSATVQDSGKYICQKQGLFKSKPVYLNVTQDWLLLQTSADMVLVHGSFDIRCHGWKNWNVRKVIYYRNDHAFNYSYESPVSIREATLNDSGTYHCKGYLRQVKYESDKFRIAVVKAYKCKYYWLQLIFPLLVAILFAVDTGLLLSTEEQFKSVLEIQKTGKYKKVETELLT
T1 sequence (P20491 19-86 partner): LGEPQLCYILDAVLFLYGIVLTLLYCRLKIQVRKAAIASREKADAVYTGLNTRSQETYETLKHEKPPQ
Method: Covalent cross linking of C3a to BMMC. BMMC were washed and incubated with C3a (50 μg/ml per 15−20×10^6 cells/sample, in PBS) for 10 min at room temperature. After another incubation of 20 min at room temperature with 5 mM of the cross linking reagent bis-(sulphosuccinimidyl)-suberate (BS3, PIERCE, Ill., USA) cells were washed and lysed. Polyclonal rabbit antibodies specific to C3a (Behringwerke AG, Germany) were used for immunoprecipitation. Western blotting was carried out by an FcεRI β chain specific antibody kindly provided by Jean Pierre Kinet (Harvard University, Boston, USA). As secondary antibody, HRPO-conjugated goat anti-mouse IgG (DAKO, Frank Diagnosztika Kft, Hungary) was used. Detection was performed by ECL.
Covalent cross-linking of C3a to BMMC. Since no C3a-receptors could be detected on mucosal type mast cells, the possibility that the peptides exert their inhibitory effect via interaction with a different cell membrane component, probably the type 1 Fcε-receptor, was examined. […] Since the ITAM-bearing β-chain had earlier been reported to act as an amplifier of the FcεRI response, the interaction of C3a with this membrane protein on BMMC was determined. Cells were incubated with C3a followed by adding the covalent cross linking agent, BS^3-reagent. […] Protein samples were separated by SDS-PAGE and analyzed by Western-blotting, using FcεRI β-chain specific antibodies.

RBL-2H3 cells = conditions: Erdei et al. 1995, 1999; cited from earlier work
rat FcεRI β chain = rat FcεRI β chain (Rattus norvegicus, UniProt P13386); assay: Surface plasmon resonance, immobilized extracellular loop peptides of rat FcεRI β chain; conditions: SPR
human FcεRI β chain = human FcεRI β chain (Homo sapiens, UniProt Q01362); assay: Surface plasmon resonance, immobilized extracellular loop peptides of human FcεRI β chain; conditions: SPR

Question: Which “Inhibition of IgE-mediated secretory response of BMMC” value [1] does the source give for “C3a: human complement component C3a, a 77-mer peptide (SEQ ID NO:1), isolated” here?
Answer: found to inhibit

Question: And the “Stimulation of secretory response of RPMC by the peptide itself” value ([2]; non-sensitized cells, no antigen)?
Answer: did respond

Question: What about the “Inhibitory effect (IC50) on the IgE-mediated degranulation of rat peritoneal mast cells (RPMC)” value ([2]; suboptimal antigen-dose) of the same substance?
Answer: Activation*

Question: What about the “Cross-linked complex with FcεRI β-chain on BMMC” value (FcεRI β-chain) of the same substance?
Answer: covalent complex

Question: And the “Inhibition of IgE-mediated degranulation of RBL-2H3 cells (literature)” value (RBL-2H3 cells)?
Answer: inhibit

Question: And the “Interaction with the second extracellular loop of rat FcεRI β chain” value (rat FcεRI β chain)?
Answer: No interaction could be detected

Question: And the Kd (rat FcεRI β chain; read-out: Kd, first extracellular loop of rat FcεRI β chain, koff/kon)?
Answer: 520 nM

Question: What about the “Interaction with the second extracellular loop of human FcεRI β chain” value (human FcεRI β chain) of the same substance?
Answer: No interaction could be detected

Question: What about the Kd (human FcεRI β chain; read-out: Kd, first extracellular loop of human FcεRI β chain, koff/kon) of the same substance?
Answer: 250 nM
